Reference: IntAct's records for PubMed 22579248

B1: Protein kinase C iota type (Mus musculus), Q62074 (parent)
chain: MPTQRDSSTMSHTVACGGGGDHSHQVRVKAYYRGDIMITHFEPSISFEGLCSEVRDMCSFDNEQPFTMKWIDEEGDPCTVSSQLELEEAFRLYELNKDSELLIHVFPCVPERPGMPCPGEDKSIYRRGARRWRKLYCANGHTFQAKRFNRRAHCAICTDRIWGLGRQGYKCINCKLLVHKKCHKLVTIECGRHSLPPEPMMPMDQTMHPDHTQTVIPYNPSSHESLDQVGEEKEAMNTRESGKASSSLGLQDFDLLRVIGRGSYAKVLLVRLKKTDRIYAMKVVKKELVNDDEDIDWVQTEKHVFEQASNHPFLVGLHSCFQTESRLFFVIEYVNGGDLMFHMQRQRKLPEEHARFYSAEISLALNYLHERGIIYRDLKLDNVLLDSEGHIKLTDYGMCKEGLRPGDTTSTFCGTPNYIAPEILRGEDYGFSVDWWALGVLMFEMMAGRSPFDIVGSSDNPDQNTEDYLFQVILEKQIRIPRSLSVKAASVLKSFLNKDPKERLGCHPQTGFADIQGHPFFRNVDWDMMEQKQVVPPFKPNISGEFGLDNFDSQFTNEPVQLTPDDDDIVRKIDQSEFEGFEYINPLLMSAEECV
B2: Partitioning defective 3 homolog (Homo sapiens), Q8TEW0 (parent)
chain: MKVTVCFGRTRVVVPCGDGHMKVFSLIQQAVTRYRKAIAKDPNYWIQVHRLEHGDGGILDLDDILCDVADDKDRLVAVFDEQDPHHGGDGTSASSTGTQSPEIFGSELGTNNVSAFQPYQATSEIEVTPSVLRANMPLHVRRSSDPALIGLSTSVSDSNFSSEEPSRKNPTRWSTTAGFLKQNTAGSPKTCDRKKDENYRSLPRDTSNWSNQFQRDNARSSLSASHPMVGKWLEKQEQDEDGTEEDNSRVEPVGHADTGLEHIPNFSLDDMVKLVEVPNDGGPLGIHVVPFSARGGRTLGLLVKRLEKGGKAEHENLFRENDCIVRINDGDLRNRRFEQAQHMFRQAMRTPIIWFHVVPAANKEQYEQLSQSEKNNYYSSRFSPDSQYIDNRSVNSAGLHTVQRAPRLNHPPEQIDSHSRLPHSAHPSGKPPSAPASAPQNVFSTTVSSGYNTKKIGKRLNIQLKKGTEGLGFSITSRDVTIGGSAPIYVKNILPRGAAIQDGRLKAGDRLIEVNGVDLVGKSQEEVVSLLRSTKMEGTVSLLVFRQEDAFHPRELNAEPSQMQIPKETKAEDEDIVLTPDGTREFLTFEVPLNDSGSAGLGVSVKGNRSKENHADLGIFVKSIINGGAASKDGRLRVNDQLIAVNGESLLGKTNQDAMETLRRSMSTEGNKRGMIQLIVARRISKCNELKSPGSPPGPELPIETALDDRERRISHSLYSGIEGLDESPSRNAALSRIMGESGKYQLSPTVNMPQDDTVIIEDDRLPVLPPHLSDQSSSSSHDDVGFVTADAGTWAKAAISDSADCSLSPDVDPVLAFQREGFGRQSMSEKRTKQFSDASQLDFVKTRKSKSMDLGIADETKLNTVDDQKAGSPSRDVGPSLGLKKSSSLESLQTAVAEVTLNGDIPFHRPRPRIIRGRGCNESFRAAIDKSYDKPAVDDDDEGMETLEEDTEESSRSGRESVSTASDQPSHSLERQMNGNQEKGDKTDRKKDKTGKEKKKDRDKEKDKMKAKKGMLKGLGDMFRFGKHRKDDKIEKTGKIKIQESFTSEEERIRMKQEQERIQAKTREFRERQARERDYAEIQDFHRTFGCDDELMYGGVSSYEGSMALNARPQSPREGHMMDALYAQVKKPRNSKPSPVDSNRSTPSNHDRIQRLRQEFQQAKQDEDVEDRRRTYSFEQPWPNARPATQSGRHSVSVEVQMQRQRQEERESSQQAQRQYSSLPRQSRKNASSVSQDSWEQNYSPGEGFQSAKENPRYSSYQGSRNGYLGGHGFNARVMLETQELLRQEQRRKEQQMKKQPPSEGPSNYDSYKKVQDPSYAPPKGPFRQDVPPSPSQVARLNRLQTPEKGRPFYS
partner: B1 chain

Variants of: B1
Settings: with pard3_human PARD3, Q8TEW0

| Variant | effect of a mutation on the interaction |
| --- | --- |
| MPTQRDSSTMSHTVACGGGGDHSHQVRVKAYYRGDIMITHFEPSISFEGLCSEVRDMCSFDNEQPFTMKWIDEEGDPCTVSSQLELEEAFRLYELNKDSELLIHVFPCVPERPGMPCPGEDKSIYRRGARRWRKLYCANGHTFQAKRFNRRAHCAICTDRIWGLGRQGYKCINCKLLVHKKCHKLVTIECGRHSLPPEPMMPMDQTMHPDHTQTVIPYNPSSHESLDQVGEEKEAMNTRESGKASSSLGLQDFDLLRVIGRGSYAKVLLVRLKKTDRIYAMKVVKKELVNKLQKIDWVQTEKHVFEQASNHPFLVGLHSCFQTESRLFFVIEYVNGGDLMFHMQRQRKLPEEHARFYSAEISLALNYLHERGIIYRDLKLDNVLLDSEGHIKLTDYGMCKEGLRPGDTTSTFCGTPNYIAPEILRGEDYGFSVDWWALGVLMFEMMAGRSPFDIVGSSDNPDQNTEDYLFQVILEKQIRIPRSLSVKAASVLKSFLNKDPKERLGCHPQTGFADIQGHPFFRNVDWDMMEQKQVVPPFKPNISGEFGLDNFDSQFTNEPVQLTPDDDDIVRKIDQSEFEGFEYINPLLMSAEECV [D291K;D292L;E293Q;D294K] | decreasing interaction strength |
| MPTQRDSSTMSHTVACGGGGDHSHQVRVKAYYRGDIMITHFEPSISFEGLCSEVRDMCSFDNEQPFTMKWIDEEGDPCTVSSQLELEEAFRLYELNKDSELLIHVFPCVPERPGMPCPGEDKSIYRRGARRWRKLYCANGHTFQAKRFNRRAHCAICTDRIWGLGRQGYKCINCKLLVHKKCHKLVTIECGRHSLPPEPMMPMDQTMHPDHTQTVIPYNPSSHESLDQVGEEKEAMNTRESGKASSSLGLQDFDLLRVIGRGSYAKVLLVRLKKTDRIYAMKVVKKELVNDDEDIDWVQTEKHVFEQASNHPFLVGLHSCFQTESRLFFVIEYVNGGDLMFHMQRQRKLPEEHARFYSAEISLALNYLHERGIIYRDLKLDNVLLDSEGHIKLTDYGMCKEGLRPGDTTSTFCGTPDYIAPEILRGEDYGFSVDWWALGVLMFEMMAGRSPFDIVGSSDNPDQNTEDYLFQVILEKQIRIPRSLSVKAASVLKSFLNKDPKERLGCHPQTGFADIQGHPFFRNVDWDMMEQKQVVPPFKPNISGEFGLDNFDSQFTNEPVQLTPDDDDIVRKIDQSEFEGFEYINPLLMSAEECV [N417D] | decreasing interaction strength |

Variants of: B1
Settings: with pard3_human PARD3, Q8TEW0
Remark: another data set of the same source

| Variant | effect of a mutation on the interaction |
| --- | --- |
| MPTQRDSSTMSHTVACGGGGDHSHQVRVKAYYRGDIMITHFEPSISFEGLCSEVRDMCSFDNEQPFTMKWIDEEGDPCTVSSQLELEEAFRLYELNKDSELLIHVFPCVPERPGMPCPGEDKSIAAAGARRWRKLYCANGHTFQAKRFNRRAHCAICTDRIWGLGRQGYKCINCKLLVHKKCHKLVTIECGRHSLPPEPMMPMDQTMHPDHTQTVIPYNPSSHESLDQVGEEKEAMNTRESGKASSSLGLQDFDLLRVIGRGSYAKVLLVRLKKTDRIYAMKVVKKELVNDDEDIDWVQTEKHVFEQASNHPFLVGLHSCFQTESRLFFVIEYVNGGDLMFHMQRQRKLPEEHARFYSAEISLALNYLHERGIIYRDLKLDNVLLDSEGHIKLTDYGMCKEGLRPGDTTSTFCGTPNYIAPEILRGEDYGFSVDWWALGVLMFEMMAGRSPFDIVGSSDNPDQNTEDYLFQVILEKQIRIPRSLSVKAASVLKSFLNKDPKERLGCHPQTGFADIQGHPFFRNVDWDMMEQKQVVPPFKPNISGEFGLDNFDSQFTNEPVQLTPDDDDIVRKIDQSEFEGFEYINPLLMSAEECV [Y125A;R126A;R127A] | increasing interaction strength |

Variants of: B2
Settings: with kpci_mouse Prkci

| Variant | effect of a mutation on the interaction |
| --- | --- |
| S829E | disrupting interaction strength |
| F823K | decreasing interaction strength |
| F823A | disrupting interaction strength |
| S827A;S829A | disrupting interaction strength |
| R820A | disrupting interaction strength |
| F818A | disrupting interaction strength |
| R825A | disrupting interaction strength |
| S827E | disrupting interaction strength |
| S827A | decreasing interaction strength |
| S827E;S829E | disrupting interaction strength |
| R832A | disrupting interaction strength |
| K831A | disrupting interaction strength |
